# Test results reported in publication PMC5814829.
# T1: ScPif1p (237-780) (Saccharomyces cerevisiae, UniProt P07271 237-780)
# T1 sequence: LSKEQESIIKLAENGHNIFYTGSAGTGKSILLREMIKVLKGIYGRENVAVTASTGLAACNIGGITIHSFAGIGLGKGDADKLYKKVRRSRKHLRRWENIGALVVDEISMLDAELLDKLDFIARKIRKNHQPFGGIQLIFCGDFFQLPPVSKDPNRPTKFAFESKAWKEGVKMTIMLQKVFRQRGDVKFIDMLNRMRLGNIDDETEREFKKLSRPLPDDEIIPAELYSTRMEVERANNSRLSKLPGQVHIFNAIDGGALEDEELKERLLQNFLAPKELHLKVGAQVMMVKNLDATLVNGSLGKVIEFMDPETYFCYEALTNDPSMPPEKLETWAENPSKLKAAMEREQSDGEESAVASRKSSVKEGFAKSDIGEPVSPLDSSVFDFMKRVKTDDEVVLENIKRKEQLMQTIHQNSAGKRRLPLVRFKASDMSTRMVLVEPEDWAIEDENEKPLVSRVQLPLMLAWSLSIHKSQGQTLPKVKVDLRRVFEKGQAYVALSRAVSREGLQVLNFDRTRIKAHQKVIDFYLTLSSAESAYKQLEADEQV
# T2: ScPif1p R326C (Saccharomyces cerevisiae, UniProt P07271 237-780, R326C)
# T2 sequence: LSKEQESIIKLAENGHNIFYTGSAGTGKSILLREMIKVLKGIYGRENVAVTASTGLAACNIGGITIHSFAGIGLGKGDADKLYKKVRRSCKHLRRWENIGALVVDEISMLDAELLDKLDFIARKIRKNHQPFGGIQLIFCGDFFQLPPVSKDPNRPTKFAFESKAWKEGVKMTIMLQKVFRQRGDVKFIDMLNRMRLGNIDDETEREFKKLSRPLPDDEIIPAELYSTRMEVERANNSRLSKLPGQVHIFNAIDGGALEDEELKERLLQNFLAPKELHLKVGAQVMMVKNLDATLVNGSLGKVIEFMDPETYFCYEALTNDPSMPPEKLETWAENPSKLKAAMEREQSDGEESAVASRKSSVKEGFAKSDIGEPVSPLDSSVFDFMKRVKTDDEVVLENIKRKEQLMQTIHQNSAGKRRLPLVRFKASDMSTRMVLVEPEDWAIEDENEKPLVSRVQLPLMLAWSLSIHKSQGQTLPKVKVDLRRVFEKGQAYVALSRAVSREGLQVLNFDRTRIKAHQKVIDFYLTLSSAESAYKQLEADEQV
# T3: ScPif1p R594A/K595A (Saccharomyces cerevisiae, UniProt P07271 237-780, R594A;K595A)
# T3 sequence: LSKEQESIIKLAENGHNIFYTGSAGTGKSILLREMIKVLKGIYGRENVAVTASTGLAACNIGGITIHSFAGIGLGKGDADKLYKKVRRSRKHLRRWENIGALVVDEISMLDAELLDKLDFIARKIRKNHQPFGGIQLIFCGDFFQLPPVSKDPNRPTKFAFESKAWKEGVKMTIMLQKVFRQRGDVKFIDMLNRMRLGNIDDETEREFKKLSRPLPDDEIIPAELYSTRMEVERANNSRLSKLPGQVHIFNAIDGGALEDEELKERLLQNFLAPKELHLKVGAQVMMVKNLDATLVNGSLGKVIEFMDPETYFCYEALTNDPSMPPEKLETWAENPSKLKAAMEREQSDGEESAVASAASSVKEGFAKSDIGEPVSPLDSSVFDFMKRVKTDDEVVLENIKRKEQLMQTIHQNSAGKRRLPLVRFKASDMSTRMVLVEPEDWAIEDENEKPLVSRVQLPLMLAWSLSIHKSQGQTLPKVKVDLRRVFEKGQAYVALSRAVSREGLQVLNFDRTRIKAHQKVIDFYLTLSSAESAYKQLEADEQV
# T4: ScPif1p R323A (Saccharomyces cerevisiae, UniProt P07271 237-780, R323A)
# T4 sequence: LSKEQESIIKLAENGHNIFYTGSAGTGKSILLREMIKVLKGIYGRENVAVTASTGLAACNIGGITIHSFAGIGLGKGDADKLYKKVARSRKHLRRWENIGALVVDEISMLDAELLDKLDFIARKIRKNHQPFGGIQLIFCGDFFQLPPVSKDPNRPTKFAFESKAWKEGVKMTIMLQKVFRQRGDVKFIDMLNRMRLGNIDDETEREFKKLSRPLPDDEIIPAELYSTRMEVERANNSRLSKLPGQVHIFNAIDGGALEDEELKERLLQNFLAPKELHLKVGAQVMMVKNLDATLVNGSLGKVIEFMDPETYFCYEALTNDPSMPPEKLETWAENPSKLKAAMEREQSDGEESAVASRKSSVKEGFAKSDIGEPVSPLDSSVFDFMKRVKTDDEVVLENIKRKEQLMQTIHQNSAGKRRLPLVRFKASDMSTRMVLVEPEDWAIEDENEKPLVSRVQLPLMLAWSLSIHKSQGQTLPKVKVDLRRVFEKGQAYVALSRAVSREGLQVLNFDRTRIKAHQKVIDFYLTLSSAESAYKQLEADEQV
# Tests used:
# Assay in all cases: fluorescence anisotropy
# ScPif1p (237-780) = molecular target: T1, ScPif1p (237-780)
# ScPif1p R326C = molecular target: T2, ScPif1p R326C
# ScPif1p R594A/K595A = molecular target: T3, ScPif1p R594A/K595A
# ScPif1p R323A = molecular target: T4, ScPif1p R323A
binder,measurement,setting,value
dsDNA16bp (dsDNA) DNA 1: CTCTGCTCGACGGATT DNA 2: AATCCGTCGAGCAGAG,Kd,ScPif1p (237-780),81.3 ± 10.3 nM
same,Kd,ScPif1p R326C,78.3 ± 9.6 nM
same,Kd,ScPif1p R594A/K595A,78.9 ± 9.3 nM
same,Kd,ScPif1p R323A,100 ± 5.1 nM
GTGTGTGTGGTG (ssDNA) [GR12],Kd,ScPif1p (237-780),11.2 ± 2.1 nM
same,Kd,ScPif1p R326C,12.4 ± 2.1 nM
same,Kd,ScPif1p R594A/K595A,10.5 ± 3.5 nM
same,Kd,ScPif1p R323A,9.9 ± 0.4 nM
AGGGTGGGTGGGTGGGT (structured_DNA) [F-G417],Kd,ScPif1p R326C,105 ± 8.4 nM
same,Kd,ScPif1p R594A/K595A,72.9 ± 4.9 nM
same,Kd,ScPif1p R323A,25.1 ± 1.4 nM
